Residue numbers refer to the chain shown, from its start. Names and notes keep the numbering of the source.
Columns and labels:
xUbcH7 (human), R5E, K9E = target: T1, xUbcH7 (human), R5E, K9E
T1 chain: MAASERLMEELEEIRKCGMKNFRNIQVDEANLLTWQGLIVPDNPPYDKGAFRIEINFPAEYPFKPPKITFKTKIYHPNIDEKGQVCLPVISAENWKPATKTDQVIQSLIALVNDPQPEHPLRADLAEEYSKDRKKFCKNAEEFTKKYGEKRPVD

CDK4, P11802 = target: T2, CDK4, P11802
T2 chain: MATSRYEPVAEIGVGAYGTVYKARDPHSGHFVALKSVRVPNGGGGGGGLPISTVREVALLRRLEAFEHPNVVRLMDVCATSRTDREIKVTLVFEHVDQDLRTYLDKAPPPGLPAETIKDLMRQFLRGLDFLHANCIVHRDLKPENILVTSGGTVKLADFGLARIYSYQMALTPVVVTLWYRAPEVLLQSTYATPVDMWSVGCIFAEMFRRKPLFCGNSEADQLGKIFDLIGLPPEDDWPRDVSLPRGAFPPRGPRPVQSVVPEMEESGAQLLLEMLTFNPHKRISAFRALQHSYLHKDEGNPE

kinase MAPK3, P27361 = target: T3, kinase MAPK3, P27361
T3 chain: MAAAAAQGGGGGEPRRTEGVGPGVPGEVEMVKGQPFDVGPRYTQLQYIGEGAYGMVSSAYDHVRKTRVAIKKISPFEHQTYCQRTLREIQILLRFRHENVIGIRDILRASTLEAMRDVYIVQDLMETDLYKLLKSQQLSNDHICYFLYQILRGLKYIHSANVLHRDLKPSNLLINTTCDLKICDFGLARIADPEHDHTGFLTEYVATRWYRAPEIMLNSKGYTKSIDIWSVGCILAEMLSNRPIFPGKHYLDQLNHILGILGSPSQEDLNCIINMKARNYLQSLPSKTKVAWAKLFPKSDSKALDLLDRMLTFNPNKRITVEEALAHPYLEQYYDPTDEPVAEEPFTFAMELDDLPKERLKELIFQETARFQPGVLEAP

[1] = target: phosphatase PPP3CA, Q08209
[2] = target: protein arginine methyl transferase PRMT1, Q99873
β-catenin, P35222 = target: T4, β-catenin, P35222
T4 chain: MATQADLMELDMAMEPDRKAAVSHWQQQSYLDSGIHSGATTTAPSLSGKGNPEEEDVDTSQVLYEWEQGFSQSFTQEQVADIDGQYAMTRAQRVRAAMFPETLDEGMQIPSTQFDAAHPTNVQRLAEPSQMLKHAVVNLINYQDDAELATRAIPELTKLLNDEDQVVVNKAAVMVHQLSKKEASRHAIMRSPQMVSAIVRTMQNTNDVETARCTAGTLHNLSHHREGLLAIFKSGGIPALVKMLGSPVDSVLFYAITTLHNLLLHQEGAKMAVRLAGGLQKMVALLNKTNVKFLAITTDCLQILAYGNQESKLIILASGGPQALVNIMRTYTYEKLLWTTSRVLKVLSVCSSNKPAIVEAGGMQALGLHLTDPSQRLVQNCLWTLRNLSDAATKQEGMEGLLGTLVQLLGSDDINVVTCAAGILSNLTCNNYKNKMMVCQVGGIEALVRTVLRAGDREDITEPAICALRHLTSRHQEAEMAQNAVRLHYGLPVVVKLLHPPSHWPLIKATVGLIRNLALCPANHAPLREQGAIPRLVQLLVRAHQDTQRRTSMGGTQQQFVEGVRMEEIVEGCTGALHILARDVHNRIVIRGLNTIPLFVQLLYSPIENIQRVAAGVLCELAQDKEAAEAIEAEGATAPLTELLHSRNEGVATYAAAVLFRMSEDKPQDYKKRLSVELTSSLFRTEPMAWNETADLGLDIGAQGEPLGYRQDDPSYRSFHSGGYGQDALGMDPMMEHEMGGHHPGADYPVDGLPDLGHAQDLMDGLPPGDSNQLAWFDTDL

Sequence of p53, P04637 (P04637 whole entry, looked up): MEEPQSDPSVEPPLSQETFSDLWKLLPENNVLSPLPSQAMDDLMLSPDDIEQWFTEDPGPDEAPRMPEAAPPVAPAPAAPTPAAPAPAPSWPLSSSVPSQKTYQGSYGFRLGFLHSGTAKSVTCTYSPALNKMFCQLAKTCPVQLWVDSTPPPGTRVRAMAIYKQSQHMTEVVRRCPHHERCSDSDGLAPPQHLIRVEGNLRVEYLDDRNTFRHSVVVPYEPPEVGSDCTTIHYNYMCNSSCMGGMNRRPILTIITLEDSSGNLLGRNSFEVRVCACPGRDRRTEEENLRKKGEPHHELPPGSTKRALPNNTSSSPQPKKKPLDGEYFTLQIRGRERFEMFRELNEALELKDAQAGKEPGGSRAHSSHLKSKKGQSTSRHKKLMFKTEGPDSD
Sequence of protein arginine methyl transferase PRMT1, Q99873 (Q99873 whole entry, looked up): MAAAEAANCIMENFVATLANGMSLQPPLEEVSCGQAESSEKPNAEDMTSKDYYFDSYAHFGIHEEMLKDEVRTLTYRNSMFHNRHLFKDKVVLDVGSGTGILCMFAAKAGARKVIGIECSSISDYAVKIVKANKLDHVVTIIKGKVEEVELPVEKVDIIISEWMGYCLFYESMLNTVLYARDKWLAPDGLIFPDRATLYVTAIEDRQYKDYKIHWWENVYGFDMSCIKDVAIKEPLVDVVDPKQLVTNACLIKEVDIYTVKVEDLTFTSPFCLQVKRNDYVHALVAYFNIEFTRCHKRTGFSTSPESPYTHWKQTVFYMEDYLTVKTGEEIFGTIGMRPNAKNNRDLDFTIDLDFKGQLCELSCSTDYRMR

B1: HECT domain of wt Nedd4 (protein)
chain: SRDYKRKYEFFRRKLKKQNDIPNKFEMKLRRATVLEDSYRRIMGVKRADFLKARLWIEFDGEKGLDYGGVAREWFFLISKEMFNPYYGLFEYSATDNYTLQINPNSGLCNEDHLSYFKFIGRVAGMAVYHGKLLDGFFIRPFYKMMLHKPITLHDMESVDSEYYNSLRWILENDPTELDLRFIIDEELFGQTHQHELKNGGSEIVVTNKNKKEYIYLVIQWRFVNRIQKQMAAFKEGFFELIPQDLIKIFDENELELLMCGLGDVDVNDWREHTKYKNGYSANHQVIQWFWKAVLMMDSEKRIRLLQFVTGTSRVPMNGFAELYGSNGPQSFTVEQWGTPEKLPRAHTCFNRLDLPPYESFEELWDKLQMAIENTQGFDGVD
- HECT auto-ubiquitination with wt UB, reducing gel (wt UbcH7 (human E2)): HECT domains of wt E6AP, Nedd4, Smurf1 and Smurf2 can be loaded with wt UB through the wt Uba1-UbcH7 pair
- HECT auto-ubiquitination with xUB, reducing gel (xUbcH7 (human), R5E, K9E): the R5E and K9E mutants in the N-terminal helix of xUbcH7 interfered with the transfer of xUB to wt HECT E3s such as E6AP, Nedd4, Smurf1, and Smurf2

B2: wt HECT domain of E6AP (protein)
chain: MKRAAAKHLIERYYHQLTEGCGNEACTNEFCASCPTFLRMDNNAAAIKALELYKINAKLCDPHPSKKGASSAYLENSKGAPNNSCSEIKMNKKGARIDFKDVTYLTEEKVYEILELCREREDYSPLIRVIGRVFSSAEALVQSFRKVKQHTKEELKSLQAKDEDKDEDEKEKAACSAAAMEEDSEASSSRIGDSSQGDNNLQKLGPDDVSVDIDAIRRVYTRLLSNEKIETAFLNALVYLSPNVECDLTYHNVYSRDPNYLNLFIIVMENRNLHSPEYLEMALPLFCKAMSKLPLAAQGKLIRLWSKYNADQIRRMMETFQQLITYKVISNEFNSRNLVNDDDAIVAASKCLKMVYYANVVGGEVDTNHNEEDDEEPIPESSELTLQELLGEERRNKKGPRVDPLETELGVKTLDCRKPLIPFEEFINEPLNEVLEMDKDYTFFKVETENKFSFMTCPFILNAVTKNLGLYYDNRIRMYSERRITVLYSLVQGQQLNPYLRLKVRRDHIIDDALVRLEMIAMENPADLKKQLYVEFEGEQGVDEGGVSKEFFQLVVEEIFNPDIGMFTYDESTKLFWFNPSSFETEGQFTLIGIVLGLAIYNNCILDVHFPMVVYRKLMGKKGTFRDLGDSHPVLYQSLKDLLEYEGNVEDDMMITFQISQTDLFGNPMMYDLKENGDKIPITNENRKEFVNLYSDYILNKSVEKQFKAFRRGFHMVTNESPLKYLFRPEEIELLICGSRNLDFQALEETTEYDGGYTRDSVLIREFWEIVHSFTDEQKRLFLQFTTGTDRAPVGGLGKLKMIIAKNGPDTERLPTSHTCFNVLLLPEYSSKEKLKERLLKAITYAKGFGML
- HECT auto-ubiquitination with wt UB, reducing gel (wt UbcH7 (human E2)): HECT domains of wt E6AP, Nedd4, Smurf1 and Smurf2 can be loaded with wt UB through the wt Uba1-UbcH7 pair

B3: xE6AP (fYW6), full-length E6AP with the YW6 HECT domain (protein)
chain: B2 chain with D651R, D652E, M653W, M654H
- p53 ubiquitination in the presence of E6, Western blot (p53, P04637): fYW6 could efficiently ubiquitinate p53 with xUB through the xUba1-xUbcH7-fYW6 cascade and the ubiquitination was dependent on the E6 protein
- full-length E6AP auto-ubiquitination with xUB, Western blot (xUbcH7 (human), R5E, K9E): fYW4 and fYW6 can be auto-ubiquitinated by xUB through the xUba1-xUbcH7 cascade

B4: E6AP HECT mutant YW6 (D651R, D652E, M653W, M654H) (protein)
chain: B2 chain with D651R, D652E, M653W, M654H
- HECT auto-ubiquitination with xUB, Western blot (xUbcH7 (human), R5E, K9E): YW3, YW4 and YW6 could be efficiently auto-ubiquitinated with xUB through the xUba1-xUbcH7 pair

B5: HECT domain of wt Smurf1 (protein)
chain: YERDLVQKLKVLRHELSLQQPQAGHCRIEVSREEIFEESYRQIMKMRPKDLKKRLMVKFRGEEGLDYGGVAREWLYLLCHEMLNPYYGLFQYSTDNIYMLQINPDSSINPDHLSYFHFVGRIMGLAVFHGHYINGGFTVPFYKQLLGKPIQLSDLESVDPELHKSLVWILENDITPVLDHTFCVEHNAFGRILQHELKPNGRNVPVTEENKKEYVRLYVNWRFMRGIEAQFLALQKGFNELIPQHLLKPFDQKELELIIGGLDKIDLNDWKSNTRLKHCVADSNIVRWFWQAVETFDEERRARLLQFVTGSTRVPLQGFKALQGSTGAAGPRLFTIHLIDANTDNLPKAHTCFNRIDIPPYESYEKLYEKLLTAVEETCGFAVE
- HECT auto-ubiquitination with wt UB, reducing gel (wt UbcH7 (human E2)): HECT domains of wt E6AP, Nedd4, Smurf1 and Smurf2 can be loaded with wt UB through the wt Uba1-UbcH7 pair
- HECT auto-ubiquitination with xUB, reducing gel (xUbcH7 (human), R5E, K9E): the R5E and K9E mutants in the N-terminal helix of xUbcH7 interfered with the transfer of xUB to wt HECT E3s such as E6AP, Nedd4, Smurf1, and Smurf2

B6: wt CHIP (full-length) (protein)
chain: MKGKEEKEGGARLGAGGGSPEKSPSAQELKEQGNRLFVGRKYPEAAACYGRAIMQQHEQALADCRRALELDGQSVKAHFFLGQCQLEMESYDEAIANLQRAYSLAKEQRLNFGDDIPSALRIAKKKRWNSIEERRIHQESELHSYLSRLIAAERERELEECQRNHEGDEDDSHVRAQQACIEAKHDKYMADMDELFSQVDEKRKKRDIPDYLCGKISFELMREPCITPSGITYDRKDIEEHLQRVGHFDPVTRSPLTQEQLIPNLAMKEVIDAFISENGWVEDY
- in vitro substrate ubiquitination with wt UB through wt Uba1-UbcH5b-CHIP, Western blot (CDK4, P11802): CHIP could poly-ubiquitinate MAPK3, β-catenin and CDK4
- in vitro substrate ubiquitination with wt UB through wt Uba1-UbcH5b-CHIP, Western blot (kinase MAPK3, P27361): CHIP could poly-ubiquitinate MAPK3, β-catenin and CDK4
- p53 ubiquitination with wt UB, Western blot (p53, P04637): p53 modification by wt UB going through the wt Uba1-UbcH5b-CHIP cascade
- in vitro substrate ubiquitination with wt UB through wt Uba1-UbcH5b-CHIP, Western blot [1]: CHIP ubiquitination of PRMT1 and PPP3CA generated mono-ubiquitinated species
- in vitro substrate ubiquitination with wt UB through wt Uba1-UbcH5b-CHIP, Western blot [2]: CHIP ubiquitination of PRMT1 and PPP3CA generated mono-ubiquitinated species
- in vitro substrate ubiquitination with wt UB through wt Uba1-UbcH5b-CHIP, Western blot (β-catenin, P35222): CHIP could poly-ubiquitinate MAPK3, β-catenin and CDK4

B7: xCHIP (CHIP-KB12), C213K, G214D, K215P, S217M, F218R, E219T (protein)
chain: B6 chain with C213K, G214D, K215P, S217M, F218R, E219T
- p53 ubiquitination with xUB, Western blot (p53, P04637): both CHIP mutants could transfer xUB to p53, a known CHIP substrate (26), at an efficiency comparable to wt UB transfer by wt CHIP

B8: xCHIP (CHIP-KB2), C213K, G214D, K215P, S217M, F218H, E219T (protein)
chain: B6 chain with C213K, G214D, K215P, S217M, F218H, E219T
- p53 ubiquitination with xUB, Western blot (p53, P04637): both CHIP mutants could transfer xUB to p53, a known CHIP substrate (26), at an efficiency comparable to wt UB transfer by wt CHIP

Source: patent US20200199576
